Patent US12466859B2, “Desmoglein 2 (DSG2) binding proteins and uses therefor” (UNIVERSITY OF WASHINGTON THROUGH ITS CENTER FOR …, priority 2013, dated 2025)
Numbering of substitutions follows the chain as printed. In names and notes the source's numbering stands.

Tests used:
[1] = test system: polarized colon cancer T84 cells; experiment: Transepithelial electrical resistance (TEER) on polarized T84 cells; format: cell-based; settings: for Effect on the TEER: added for 1 hour to the apical side of transwell cultures
Description: FIG. 5A-5B. Correlation of reduced DSG2 binding with the ability to open epithelial junctions. FIG. 5A) Transepithelial electrical resistance (TEER) measured on polarized colon cancer T84 cells. Cells were cultured in transwell chambers until the TEER was constant, i.e. tight junctions had formed. A total of 5 μg of dimeric Ad3 fiber knobs in PBS was then added for 1 hour to the apical chamber. TEER was measured at the indicated time points. N=6. For time points 1.5 and 4 hours the difference between JO-1 vs D261N and N186D was significant (p<0.01). The arrows indicate the addition and removal of Ad3 fiber knobs. FIG. 5B) Enhancement of irinotecan therapy. A total of 4×10^6 A549 cells were injected subcutaneously into CB17-SCID/beige mice. Once the tumor reached a volume of ˜100 mm^3 (day 15 after implantation), the mice were injected intravenously with 2 mg/kg JO-1, E299V, N186D, or PBS, followed by an intravenous injection of irinotecan (37.5 mg/kg) one hour later. The treatment was repeated on day 25. N=5. […] The difference between “irinotecan” vs “JO-1+irinotecan” was significant (p<0.01) from day 20 on.
FIG. 9A1-9C. Analysis of dimeric Ad3 fiber knob mutants with increased affinity to DSG2. FIG. 9A1-9A2) Competition of Ad3-GFP virus infection on HeLa cells with dimeric affinity-enhanced mutant Y250F and JO-1 (dimeric wt Ad3 fiber knob). The experimental setting is as described for FIG. 3C. FIG. 9A1) percentage of GFP positive cells. FIG. 9A2) mean fluorescence intensity. N=3. The standard deviation was less than 10%. FIG. 9B1-9B2) Competition of Ad3-GFP virus infection on HeLa cells by Ad3 knob mutants with enhanced DSG2 binding but without dimerization domain. 1.5×10^5 HeLa cells were seeded into 24 well plates. Cells were incubated with the Ad3 knob mutants at the increasing concentrations for one hour at room temperature. 100 pfu/cell of Ad3GFP virus were then added and GFP expression was analyzed 18 hours later. FIG. 9B1) % of GFP+cells; FIG. 9B2) MFI. FIG. 9C) TEER on colon cancer T84 cells. The experimental setting was the same as for FIG. 5A. The TEER at 4 hours is shown. N=3.
Permeability assay. A total of 5×10^5 T84 cells were seeded in 12 mm transwell inserts (PET membrane, with 0.4 μm pore size (Corning, NY) and cultured for >14 days until transepithelial electrical resistance (TEER) was stable. Culture medium was changed every 2-3 days. The cells were exposed to DSG2 ligands (20 μg/ml) in adhesion medium (DMEM, 1% FBS, 2 mM MgCl2, 20 mM HEPES) for 15 min at room temperature and TEER was measured and calculated as described elsewhere (39).

ovc316 xenograft tumors = experiment: Enhancement of PLD therapy in ovc316 ovarian cancer xenograft tumors; format: in vivo, CB17 mice; settings: weekly
Description: FIG. 10A-10C. Combination of affinity-enhanced JO-1 versions with chemotherapy. FIG. 10A) Enhancement of irinotecan (I) therapy. The experimental setting was the same as in FIG. 5B. […] N=5. […] Mammary fat pad tumors were established from primary ovarian cancer ovc316 cells. Treatment was started when tumors reached a volume of 100 mm^3. Mice were injected intravenously with 2 mg/kg JO-1 or with 0.5 mg/kg JO-4, followed by an intravenous injection of PEGylated liposomal doxorubicin (PLD) (1 mg/kg) one hour later. Treatment was repeated weekly. […] A total of 4×10^6 TNBC MDA-MB-231 cells were injected into the mammary fat pad of CB17 SCID-beige mice. JO-4 (2 mg/kg) was intravenously injected 1 hour before the application of cetuximab (C) (10 mg/kg, i.p.) and nab-paclitaxel (nab-P) (5 mg/kg, i.v.). Treatment was given weekly. N=10 P<0.01 at day 25 for nab-P+C vs JO-4+nab-P+C.
A549, MDA-MB-231, and ovc316 xenograft tumors were established by injection of the corresponding tumor cells into the mammary fat pad (1:1 with Matrigel) of CB17 mice. TC1-DSG2 tumors were established by subcutaneous injection of TC1-DSG2 cells into DSG2 transgenic mice. […] Tumor volumes were measured three times a week. […]

B1: D261N (protein)
chain: MKVSALKEKVSALKEKVSALKEKVSALKEKVSALKEGSGGGSGGGSGGGSNSIALKNNTLWTGPKPEANCIIEYGKQNPDSKLTLILVKNGGIVNGYVTLMGASDYVNTLFKNKNVSINVELYFDATGHILPDSSSLKTDLELKYKQTADFSARGFMPSTTAYPFVLPNAGTHNENYIFGQCYYKASNGALFPLEVTVMLNKRLPDSRTSYVMTFLWSLNAGLAPETTQATLITSPFTFSYIREDD
Effect on the TEER [1]: no effect

B2: JO-4 (protein)
chain: B1 chain with Y177F, N188D
Enhancement of PLD therapy (ovc316 xenograft tumors; 0.5 mg/kg i.v. one hour before PLD 1 mg/kg): enhances PLD therapy
TEER compared to JO-1 ([1]; dimeric affinity-enhanced mutants, TEER at 4 hours): significantly higher

B3: JO-1: dimeric protein that contains the wild-type Ad3 fiber knob and a self-dimerization domain (SEQ ID NO:27) (protein, listed as Homo sapiens)
chain: B1 chain with N188D
modifications: dimer
Enhancement of PLD therapy (ovc316 xenograft tumors; 2 mg/kg i.v. one hour before PLD 1 mg/kg): significantly increased the treatment efficiency
Effect on the TEER [1]: rapid decrease in the TEER
